Measured values from patent publication US9566335.

Tests used:
[1] = target: biotinylated peptide X-…(biotin), X = A; test: phage ELISA, biotinylated peptide on neutravidin
[2] = target: biotinylated peptide X-…(biotin), X = C; test: phage ELISA, biotinylated peptide on neutravidin
[3] = target: biotinylated peptide X-…(biotin), X = D; test: phage ELISA, biotinylated peptide on neutravidin
[4] = target: biotinylated peptide X-…(biotin), X = E; test: phage ELISA, biotinylated peptide on neutravidin
[5] = target: biotinylated peptide X-…(biotin), X = G; test: phage ELISA, biotinylated peptide on neutravidin
[6] = target: biotinylated peptide X-…(biotin), X = H; test: phage ELISA, biotinylated peptide on neutravidin
[7] = target: biotinylated peptide X-…(biotin), X = I; test: phage ELISA, biotinylated peptide on neutravidin
[8] = target: biotinylated peptide X-…(biotin), X = K; test: phage ELISA, biotinylated peptide on neutravidin
[9] = target: biotinylated peptide X-…(biotin), X = M; test: phage ELISA, biotinylated peptide on neutravidin
[10] = target: biotinylated peptide X-…(biotin), X = N; test: phage ELISA, biotinylated peptide on neutravidin
[11] = target: biotinylated peptide X-…(biotin), X = P; test: phage ELISA, biotinylated peptide on neutravidin
[12] = target: biotinylated peptide X-…(biotin), X = Q; test: phage ELISA, biotinylated peptide on neutravidin
[13] = target: biotinylated peptide X-…(biotin), X = R; test: phage ELISA, biotinylated peptide on neutravidin
[14] = target: biotinylated peptide X-…(biotin), X = S; test: phage ELISA, biotinylated peptide on neutravidin
[15] = target: biotinylated peptide X-…(biotin), X = T; test: phage ELISA, biotinylated peptide on neutravidin
[16] = target: biotinylated peptide X-…(biotin), X = V; test: phage ELISA, biotinylated peptide on neutravidin
[17] = target: biotinylated peptide X-…(biotin), X = A; test: phage ELISA, biotinylated peptide on neutravidin; phage 10×
[18] = target: biotinylated peptide X-…(biotin), X = C; test: as above
[19] = target: biotinylated peptide X-…(biotin), X = D; test: as above
[20] = target: biotinylated peptide X-…(biotin), X = E; test: as above
[21] = target: biotinylated peptide X-…(biotin), X = G; test: as above
[22] = target: biotinylated peptide X-…(biotin), X = H; test: as above
[23] = target: biotinylated peptide X-…(biotin), X = I; test: as above
[24] = target: biotinylated peptide X-…(biotin), X = K; test: as above
[25] = target: biotinylated peptide X-…(biotin), X = M; test: as above
[26] = target: biotinylated peptide X-…(biotin), X = N; test: as above
[27] = target: biotinylated peptide X-…(biotin), X = P; test: as above
[28] = target: biotinylated peptide X-…(biotin), X = Q; test: as above
[29] = target: biotinylated peptide X-…(biotin), X = R; test: as above
[30] = target: biotinylated peptide X-…(biotin), X = S; test: as above
[31] = target: biotinylated peptide X-…(biotin), X = T; test: as above
[32] = target: biotinylated peptide X-…(biotin), X = V; test: as above

B1: Phage displayed wild-type E. coli ClpS (truncated wildtype ClpS polypeptide, FLAG-tagged, fused to phage coat protein p3) (protein)
chain: KPPSMYKVILVNDDYTPMEFVIDVLQKFFSYDVERATQLMLAVHYQGKAICGVFTAEVAETKVAMVNKYARENEHPLLCTLEKA
In the case of B1, the phage ELISA signal (A450) [1] is reported as -0.29, the phage ELISA signal (A450) [2] is reported as -0.23 and the phage ELISA signal (A450) [3] is reported as -0.29. For the same binder, the phage ELISA signal (A450) [4] was -0.26, the phage ELISA signal (A450) [5] was -0.04 and the phage ELISA signal (A450) [6] was -0.03. It also gave a phage ELISA signal (A450) [7] of -0.016, a phage ELISA signal (A450) [8] of 0.05 and a phage ELISA signal (A450) [9] of -0.11. For the same binder, the phage ELISA signal (A450) [10] was -0.05, the phage ELISA signal (A450) [11] was -0.07 and the phage ELISA signal (A450) [12] was -0.18. For the same binder, the phage ELISA signal (A450) [13] was 0.13, the phage ELISA signal (A450) [14] was -0.01 and the phage ELISA signal (A450) [15] was 0.01. It also gave a phage ELISA signal (A450) [16] of -0.09, a phage ELISA signal (A450) [17] of -0.29 and a phage ELISA signal (A450) [18] of -0.23. For the same binder, the phage ELISA signal (A450) [19] was -0.29, the phage ELISA signal (A450) [20] was -0.26 and the phage ELISA signal (A450) [21] was -0.04. The phage ELISA signal (A450) [22] was -0.03, the phage ELISA signal (A450) [23] was -0.16 and the phage ELISA signal (A450) [24] was 0.05. For the same binder, the phage ELISA signal (A450) [25] was -0.11, the phage ELISA signal (A450) [26] was -0.05 and the phage ELISA signal (A450) [27] was -0.07. It also gave a phage ELISA signal (A450) [28] of -0.18, a phage ELISA signal (A450) [29] of 0.13 and a phage ELISA signal (A450) [30] of -0.01. It also gave a phage ELISA signal (A450) [31] of 0.01 and a phage ELISA signal (A450) [32] of -0.09.
